The text below walks through data of article PMC2814137, “Crystal Structural and Functional Analysis of the Putative Dipeptidase from Pyrococcus horikoshii OT3” (Journal of Biophysics, 2009).

Series [1] deals with the molecule itself. In words: AUC; sedimentation equilibrium, 20°C, 13 K rpm, three protein concentrations between 0.93 and 0.31 mg/mL, 20 mM Tris pH 8.0, 100 mM NaCl; monomer/dimer.
Substrate in series [2]: CC(C)[C@H](N)C(=O)N1CCC[C@H]1C(=O)O
In words: colorimetric ninhydrin prolidase assay. The class given is biochemical, Pyrococcus horikoshii. Conditions: 1.2 mM CoCl2, 50 mM MOPS pH 7.0, 100°C, hydrochloride salt.

B1: putative dipeptidase (Phdpd) from Pyrococcus horikoshii OT3 (enzyme, UniProt O58691 1-356, looked up)
chain: MRLEKFIHLLGERGFDGALISPGTNLYYLTGLRLHEVGERLAILAVSAEGDYRFLAPSLYENVVNNFPATFWHDGENPYAKLREILEELGISKGRILIEDTMRADWLIGIMKLGKFTFQPLSSLIKELRMIKDKEEVKMMEHASRIADKVFEEILTWDLIGMKERELALKIELLIRELSDGIAFEPIVASGENAANPHHEPGERKIRKGDIIILDYGARWKGYCSDITRTIGLGELDERLVKIYEVVKDAQESAFKAVREGIKAKDVDSRAREVISKAGYGEYFIHRTGHGLGLDVHEEPYIGPDGEVILKNGMTFTIEPGIYVPGLGGVRIEDDIVVDEGKGRRLTKAERELIIL
notes: putative dipeptidase / X-Pro dipeptidase (prolidase), Project ID PH0974, Pyrococcus horikoshii OT3; No tag is mentioned; the plasmid was made by the 'super-rare-cutter system' (manuscript in preparation); A selenomethionine-labelled crystal was used for MAD phasing only; also called PH0974; X-Pro dipeptidase (prolidase) of Project ID PH0974; source: E. coli BL21-CodonPlus (DE3)-RIL, purified …
On to B1, for which, in series [1], the “stoichiometry N” value was 2. In series [2], the Km is listed as 5.0 mM and the kcat is 541 s⁻¹.
